Starred links: 1 amine or outer side, 2 acyl side, 3 side chain; linkers in the order of their positions; H or OH if unused. Non-standard residues stand in square brackets, D forms with d. Groups on a side chain read outwards from the residue. No end group written: not given here. *: point of attachment. C20 diacid = O=C(O)CCCCCCCCCCCCCCCCCCC(=O)*; γGlu = O=C(O)[C@H](CCC(=O)[*:2])N[*:1]; 4Pal = N[C@@H](Cc1ccncc1)C(=O)O; αMeL = CC(C)C[C@](C)(N)C(=O)O; AEEA = NCCOCCOCC(=O)O; Aib = CC(C)(N)C(=O)O
T1: human glucose-dependent insulinotropic polypeptide (GIP) receptor (human, UniProt P48546 22-466)
T1 construct: whole, on cells; Assayed as crude membranes of stably transfected CHO cells; also called hGIPR; human GIP receptor
T1 sequence (looked up): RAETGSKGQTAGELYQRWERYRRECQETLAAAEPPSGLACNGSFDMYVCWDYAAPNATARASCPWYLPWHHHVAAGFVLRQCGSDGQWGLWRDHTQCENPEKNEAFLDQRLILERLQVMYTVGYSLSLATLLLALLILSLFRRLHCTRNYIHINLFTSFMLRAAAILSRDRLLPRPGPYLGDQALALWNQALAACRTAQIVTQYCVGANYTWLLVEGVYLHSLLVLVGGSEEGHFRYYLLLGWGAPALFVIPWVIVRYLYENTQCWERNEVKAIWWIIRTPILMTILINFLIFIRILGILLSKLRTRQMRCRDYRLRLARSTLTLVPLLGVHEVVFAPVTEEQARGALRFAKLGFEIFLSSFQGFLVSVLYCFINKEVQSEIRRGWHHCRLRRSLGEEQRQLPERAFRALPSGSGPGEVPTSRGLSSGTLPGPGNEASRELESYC

B1: Example 46 (peptide)
peptide: Y[Aib]EGTFISDYSI[αMeL]LDKK([AEEA-AEEA-γGlu-C20 diacid])HQ[Aib]DFVE[4Pal]LLEQGPSSGAPPPS-NH2
modifications: N-terminus assumed
SMILES: CC[C@H](C)[C@H](NC(=O)[C@H](Cc1ccccc1)NC(=O)[C@@H](NC(=O)CNC(=O)[C@H](CCC(=O)O)NC(=O)C(C)(C)NC(=O)[C@@H](N)Cc1ccc(O)cc1)[C@@H](C)O)C(=O)N[C@@H](CO)C(=O)N[C@@H](CC(=O)O)C(=O)N[C@@H](Cc1ccc(O)cc1)C(=O)N[C@@H](CO)C(=O)N[C@H](C(=O)N[C@@](C)(CC(C)C)C(=O)N[C@@H](CC(C)C)C(=O)N[C@@H](CC(=O)O)C(=O)N[C@@H](CCCCN)C(=O)N[C@@H](CCCCNC(=O)COCCOCCNC(=O)COCCOCCNC(=O)CC[C@H](NC(=O)CCCCCCCCCCCCCCCCCCC(=O)O)C(=O)O)C(=O)N[C@@H](Cc1c[nH]cn1)C(=O)N[C@@H](CCC(N)=O)C(=O)NC(C)(C)C(=O)N[C@@H](CC(=O)O)C(=O)N[C@@H](Cc1ccccc1)C(=O)N[C@H](C(=O)N[C@@H](CCC(=O)O)C(=O)N[C@@H](Cc1ccncc1)C(=O)N[C@@H](CC(C)C)C(=O)N[C@@H](CC(C)C)C(=O)N[C@@H](CCC(=O)O)C(=O)N[C@@H](CCC(N)=O)C(=O)NCC(=O)N1CCC[C@H]1C(=O)N[C@@H](CO)C(=O)N[C@@H](CO)C(=O)NCC(=O)N[C@@H](C)C(=O)N1CCC[C@H]1C(=O)N1CCC[C@H]1C(=O)N1CCC[C@H]1C(=O)N[C@@H](CO)C(N)=O)C(C)C)[C@@H](C)CC
B2: Example 52 (peptide)
peptide: Y[Aib]EGTFISDYSI[αMeL]LDKK([AEEA-AEEA-γGlu-C20 diacid])HQ[Aib]EFVE[4Pal]LLAGGPSSGAPPPS-NH2
modifications: N-terminus assumed
SMILES: CC[C@H](C)[C@H](NC(=O)[C@H](Cc1ccccc1)NC(=O)[C@@H](NC(=O)CNC(=O)[C@H](CCC(=O)O)NC(=O)C(C)(C)NC(=O)[C@@H](N)Cc1ccc(O)cc1)[C@@H](C)O)C(=O)N[C@@H](CO)C(=O)N[C@@H](CC(=O)O)C(=O)N[C@@H](Cc1ccc(O)cc1)C(=O)N[C@@H](CO)C(=O)N[C@H](C(=O)N[C@@](C)(CC(C)C)C(=O)N[C@@H](CC(C)C)C(=O)N[C@@H](CC(=O)O)C(=O)N[C@@H](CCCCN)C(=O)N[C@@H](CCCCNC(=O)COCCOCCNC(=O)COCCOCCNC(=O)CC[C@H](NC(=O)CCCCCCCCCCCCCCCCCCC(=O)O)C(=O)O)C(=O)N[C@@H](Cc1c[nH]cn1)C(=O)N[C@@H](CCC(N)=O)C(=O)NC(C)(C)C(=O)N[C@@H](CCC(=O)O)C(=O)N[C@@H](Cc1ccccc1)C(=O)N[C@H](C(=O)N[C@@H](CCC(=O)O)C(=O)N[C@@H](Cc1ccncc1)C(=O)N[C@@H](CC(C)C)C(=O)N[C@@H](CC(C)C)C(=O)N[C@@H](C)C(=O)NCC(=O)NCC(=O)N1CCC[C@H]1C(=O)N[C@@H](CO)C(=O)N[C@@H](CO)C(=O)NCC(=O)N[C@@H](C)C(=O)N1CCC[C@H]1C(=O)N1CCC[C@H]1C(=O)N1CCC[C@H]1C(=O)N[C@@H](CO)C(N)=O)C(C)C)[C@@H](C)CC
B3: Example 58 (peptide)
peptide: Y[Aib]EGTFISDYSI[αMeL]LDKK([AEEA-AEEA-γGlu-C20 diacid])HQ[Aib]EFVE[4Pal]LLATGPSSGAPPPS-NH2
modifications: N-terminus assumed
SMILES: CC[C@H](C)[C@H](NC(=O)[C@H](Cc1ccccc1)NC(=O)[C@@H](NC(=O)CNC(=O)[C@H](CCC(=O)O)NC(=O)C(C)(C)NC(=O)[C@@H](N)Cc1ccc(O)cc1)[C@@H](C)O)C(=O)N[C@@H](CO)C(=O)N[C@@H](CC(=O)O)C(=O)N[C@@H](Cc1ccc(O)cc1)C(=O)N[C@@H](CO)C(=O)N[C@H](C(=O)N[C@@](C)(CC(C)C)C(=O)N[C@@H](CC(C)C)C(=O)N[C@@H](CC(=O)O)C(=O)N[C@@H](CCCCN)C(=O)N[C@@H](CCCCNC(=O)COCCOCCNC(=O)COCCOCCNC(=O)CC[C@H](NC(=O)CCCCCCCCCCCCCCCCCCC(=O)O)C(=O)O)C(=O)N[C@@H](Cc1c[nH]cn1)C(=O)N[C@@H](CCC(N)=O)C(=O)NC(C)(C)C(=O)N[C@@H](CCC(=O)O)C(=O)N[C@@H](Cc1ccccc1)C(=O)N[C@H](C(=O)N[C@@H](CCC(=O)O)C(=O)N[C@@H](Cc1ccncc1)C(=O)N[C@@H](CC(C)C)C(=O)N[C@@H](CC(C)C)C(=O)N[C@@H](C)C(=O)N[C@H](C(=O)NCC(=O)N1CCC[C@H]1C(=O)N[C@@H](CO)C(=O)N[C@@H](CO)C(=O)NCC(=O)N[C@@H](C)C(=O)N1CCC[C@H]1C(=O)N1CCC[C@H]1C(=O)N1CCC[C@H]1C(=O)N[C@@H](CO)C(N)=O)[C@@H](C)O)C(C)C)[C@@H](C)CC
B4: Example 47 (peptide)
peptide: Y[Aib]EGTFISDYSI[αMeL]LDKK([AEEA-AEEA-γGlu-C20 diacid])HQ[Aib]DFVE[4Pal]LLEGGPSSGAPPPS-NH2
modifications: N-terminus assumed
SMILES: CC[C@H](C)[C@H](NC(=O)[C@H](Cc1ccccc1)NC(=O)[C@@H](NC(=O)CNC(=O)[C@H](CCC(=O)O)NC(=O)C(C)(C)NC(=O)[C@@H](N)Cc1ccc(O)cc1)[C@@H](C)O)C(=O)N[C@@H](CO)C(=O)N[C@@H](CC(=O)O)C(=O)N[C@@H](Cc1ccc(O)cc1)C(=O)N[C@@H](CO)C(=O)N[C@H](C(=O)N[C@@](C)(CC(C)C)C(=O)N[C@@H](CC(C)C)C(=O)N[C@@H](CC(=O)O)C(=O)N[C@@H](CCCCN)C(=O)N[C@@H](CCCCNC(=O)COCCOCCNC(=O)COCCOCCNC(=O)CC[C@H](NC(=O)CCCCCCCCCCCCCCCCCCC(=O)O)C(=O)O)C(=O)N[C@@H](Cc1c[nH]cn1)C(=O)N[C@@H](CCC(N)=O)C(=O)NC(C)(C)C(=O)N[C@@H](CC(=O)O)C(=O)N[C@@H](Cc1ccccc1)C(=O)N[C@H](C(=O)N[C@@H](CCC(=O)O)C(=O)N[C@@H](Cc1ccncc1)C(=O)N[C@@H](CC(C)C)C(=O)N[C@@H](CC(C)C)C(=O)N[C@@H](CCC(=O)O)C(=O)NCC(=O)NCC(=O)N1CCC[C@H]1C(=O)N[C@@H](CO)C(=O)N[C@@H](CO)C(=O)NCC(=O)N[C@@H](C)C(=O)N1CCC[C@H]1C(=O)N1CCC[C@H]1C(=O)N1CCC[C@H]1C(=O)N[C@@H](CO)C(N)=O)C(C)C)[C@@H](C)CC
B5: Example 57 (peptide)
peptide: Y[Aib]EGTFISDYSI[αMeL]LDKK([AEEA-AEEA-γGlu-C20 diacid])HQ[Aib]EFVE[4Pal]LLAQGPSSGAPPPS-NH2
modifications: N-terminus assumed
SMILES: CC[C@H](C)[C@H](NC(=O)[C@H](Cc1ccccc1)NC(=O)[C@@H](NC(=O)CNC(=O)[C@H](CCC(=O)O)NC(=O)C(C)(C)NC(=O)[C@@H](N)Cc1ccc(O)cc1)[C@@H](C)O)C(=O)N[C@@H](CO)C(=O)N[C@@H](CC(=O)O)C(=O)N[C@@H](Cc1ccc(O)cc1)C(=O)N[C@@H](CO)C(=O)N[C@H](C(=O)N[C@@](C)(CC(C)C)C(=O)N[C@@H](CC(C)C)C(=O)N[C@@H](CC(=O)O)C(=O)N[C@@H](CCCCN)C(=O)N[C@@H](CCCCNC(=O)COCCOCCNC(=O)COCCOCCNC(=O)CC[C@H](NC(=O)CCCCCCCCCCCCCCCCCCC(=O)O)C(=O)O)C(=O)N[C@@H](Cc1c[nH]cn1)C(=O)N[C@@H](CCC(N)=O)C(=O)NC(C)(C)C(=O)N[C@@H](CCC(=O)O)C(=O)N[C@@H](Cc1ccccc1)C(=O)N[C@H](C(=O)N[C@@H](CCC(=O)O)C(=O)N[C@@H](Cc1ccncc1)C(=O)N[C@@H](CC(C)C)C(=O)N[C@@H](CC(C)C)C(=O)N[C@@H](C)C(=O)N[C@@H](CCC(N)=O)C(=O)NCC(=O)N1CCC[C@H]1C(=O)N[C@@H](CO)C(=O)N[C@@H](CO)C(=O)NCC(=O)N[C@@H](C)C(=O)N1CCC[C@H]1C(=O)N1CCC[C@H]1C(=O)N1CCC[C@H]1C(=O)N[C@@H](CO)C(N)=O)C(C)C)[C@@H](C)CC

Each binder was assayed against T1, human glucose-dependent insulinotropic … (assay: SPA, displacement of [125I]-GIP from hGIPR membranes, 0.1% bacitracin).

Row | Binder | Ki [nM]
1 | B1 | 0.0319
2 | B2 | 0.0372
3 | B3 | 0.0324
4 | B4 | 0.0452
5 | B5 | 0.0154

These binders were tested against T2, human glucagon receptor (human, UniProt P47871 26-477) (assay: SPA, displacement of [125I]-Gcg from hGcgR membranes, 0.1% bacitracin).
T2 construct: whole, on cells; Assayed as crude membranes of stably transfected HEK293 cells; also called hGcgR; GcgR
Description: The binding buffer contains 25 mM 4-(2-hydroxyethyl)-1-piperazineethanesulfonic acid (HEPES), pH 7.4, 2.5 mM CaCl₂), 1 mM MgCl₂, 0.1% (w/v) bacitracin (Research Products), 0.003% (w/v) Polyoxyethylenesorbitan monolaurate (TWEEN®-20), and Roche Complete™ Protease Inhibitors without EDTA. […] Plates are sealed and mixed on a plate shaker (setting 6) for 1 minute and read with a PerkinElmer Trilux MicroBeta® scintillation counter after 12 hours of incubation/settling time at room temperature.
Data are analyzed using four-parameter (curve maximum, curve minimum, […], Hill slope) nonlinear regression routines (Genedata Screener, version 12.0.4, Genedata AG, Basal, Switzerland). […] Values for Kᵢ are reported as the geometric mean, with error expressed as the standard error of the mean (SEM) and n is equal to the number of independent replicates (determined in assays performed on different days).

T2 sequence (P47871 26-477): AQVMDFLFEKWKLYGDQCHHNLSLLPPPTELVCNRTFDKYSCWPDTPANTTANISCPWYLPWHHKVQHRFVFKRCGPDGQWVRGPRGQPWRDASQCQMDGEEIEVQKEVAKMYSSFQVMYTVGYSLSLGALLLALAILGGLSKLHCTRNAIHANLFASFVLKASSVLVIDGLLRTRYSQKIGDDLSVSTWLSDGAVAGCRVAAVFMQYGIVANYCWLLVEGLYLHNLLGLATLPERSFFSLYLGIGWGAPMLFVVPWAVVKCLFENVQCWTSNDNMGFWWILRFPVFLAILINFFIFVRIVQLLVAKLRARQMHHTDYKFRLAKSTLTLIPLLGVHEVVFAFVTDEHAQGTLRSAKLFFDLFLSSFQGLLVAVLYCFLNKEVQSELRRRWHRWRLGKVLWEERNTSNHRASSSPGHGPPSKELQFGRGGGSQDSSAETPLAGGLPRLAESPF

Row | Binder | Ki [nM]
6 | B1 | 435
7 | B2 | 114
8 | B3 | 418
9 | B4 | 175
10 | B5 | 422

These binders were tested against T3, human GLP-1 receptor (human, UniProt P43220 24-463) (assay: SPA, displacement of [125I]-GLP-1 from hGLP-1R membranes, 0.1% bacitracin).
T3 construct: whole, on cells; Assayed as crude membranes of stably transfected HEK293 cells; also called hGLP1R; hGLP-1R
Outline: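 Binding buffer: 25 mM HEPES pH 7.4, 2.5 mM CaCl₂, 1 mM MgCl₂, 0.1% bacitracin, 0.003% Tween-20, protease inhibitors without EDTA. Four-parameter nonlinear regression; Kᵢ given as geometric mean ± SEM, n = independent replicates run on different days.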

Row | Binder | Ki [nM]
11 | B1 | 744
12 | B2 | 128
13 | B3 | 459
14 | B4 | 320
15 | B5 | 280

Source: patent US20210032299A1 (Eli Lilly, published 2021)
